Source: patent US6562788B1, “Topoisomerase II inhibitor” (Laboratoire L. Lafon, priority 1998, dated 2003)

How the values were obtained:
[1] = target: T1, human topoisomerase II alpha (Homo sapiens, UniProt P11388); assay: decatenation of kinetoplast DNA, topoisomerase II activity assay; assay type: biochemical; settings: peptide concentration of 0.5 μM
Text: (§1) Two enzymatic assays make it possible to estimate the effect of the pentides on topoisomerase II activity: relaxation of supercoiled plasmids and decatenation of kinetoplast DNA (Wang, J. C., An. Rev. Biochem., 54: 665-697, 1985; Maxwell, A., Advances in Protein Chemistry, 38: 69-107, 1986; Liu, L. F., Cell, 19: 697-707, 1980).

[2] = target: T2, topoisomerase II of yeast (Saccharomyces cerevisiae, UniProt P06786); assay: as above; assay type: biochemical; settings: peptide concentration of 0.5 μM
T2 sequence (P06786 1-1428): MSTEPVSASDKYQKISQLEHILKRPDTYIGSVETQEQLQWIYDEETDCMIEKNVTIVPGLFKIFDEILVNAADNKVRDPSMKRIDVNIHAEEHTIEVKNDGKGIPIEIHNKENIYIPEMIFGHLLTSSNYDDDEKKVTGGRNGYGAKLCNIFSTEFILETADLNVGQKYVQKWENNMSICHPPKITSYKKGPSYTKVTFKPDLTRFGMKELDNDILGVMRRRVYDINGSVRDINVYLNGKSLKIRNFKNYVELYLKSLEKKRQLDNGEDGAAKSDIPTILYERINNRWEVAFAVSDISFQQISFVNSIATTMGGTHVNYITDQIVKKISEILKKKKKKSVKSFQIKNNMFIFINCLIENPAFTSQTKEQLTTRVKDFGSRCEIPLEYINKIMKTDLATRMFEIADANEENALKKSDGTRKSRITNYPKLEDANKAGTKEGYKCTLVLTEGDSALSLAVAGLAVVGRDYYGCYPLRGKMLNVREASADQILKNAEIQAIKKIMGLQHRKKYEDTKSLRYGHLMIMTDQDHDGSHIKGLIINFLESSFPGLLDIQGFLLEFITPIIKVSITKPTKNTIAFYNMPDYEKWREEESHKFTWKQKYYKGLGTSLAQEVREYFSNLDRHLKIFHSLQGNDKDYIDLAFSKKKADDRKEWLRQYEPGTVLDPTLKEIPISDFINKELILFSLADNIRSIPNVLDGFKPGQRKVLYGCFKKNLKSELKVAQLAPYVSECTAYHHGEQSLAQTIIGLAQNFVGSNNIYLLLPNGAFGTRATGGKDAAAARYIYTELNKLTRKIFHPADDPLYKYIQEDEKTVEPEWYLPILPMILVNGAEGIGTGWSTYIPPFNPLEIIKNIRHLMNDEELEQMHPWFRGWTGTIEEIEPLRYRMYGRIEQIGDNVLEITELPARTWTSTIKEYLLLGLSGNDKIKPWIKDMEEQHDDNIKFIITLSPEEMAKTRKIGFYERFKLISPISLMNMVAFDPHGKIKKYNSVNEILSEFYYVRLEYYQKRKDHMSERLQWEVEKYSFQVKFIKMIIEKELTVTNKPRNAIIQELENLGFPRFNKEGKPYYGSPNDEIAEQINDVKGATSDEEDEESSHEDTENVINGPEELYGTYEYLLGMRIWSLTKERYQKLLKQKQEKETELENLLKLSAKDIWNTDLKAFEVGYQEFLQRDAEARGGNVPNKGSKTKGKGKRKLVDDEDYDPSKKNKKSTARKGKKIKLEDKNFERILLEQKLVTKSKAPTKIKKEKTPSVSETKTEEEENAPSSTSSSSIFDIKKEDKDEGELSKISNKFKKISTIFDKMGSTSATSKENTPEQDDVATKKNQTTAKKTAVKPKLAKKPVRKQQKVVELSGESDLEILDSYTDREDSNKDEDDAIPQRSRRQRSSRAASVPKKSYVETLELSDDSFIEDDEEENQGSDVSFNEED
Text: as §1

[3] = target: T1, human topoisomerase II alpha; assay: relaxation of supercoiled plasmids, topoisomerase II activity assay; assay type: biochemical; settings: peptide concentration of 0.5 μM
Text: as §1

[4] = target: T2, topoisomerase II of yeast; assay: as above; assay type: biochemical; settings: peptide concentration of 0.5 μM
Text: as §1

[5] = system: topoisomerase II; settings: prior art, literature; cited from earlier work

T1 sequence (P11388 whole entry): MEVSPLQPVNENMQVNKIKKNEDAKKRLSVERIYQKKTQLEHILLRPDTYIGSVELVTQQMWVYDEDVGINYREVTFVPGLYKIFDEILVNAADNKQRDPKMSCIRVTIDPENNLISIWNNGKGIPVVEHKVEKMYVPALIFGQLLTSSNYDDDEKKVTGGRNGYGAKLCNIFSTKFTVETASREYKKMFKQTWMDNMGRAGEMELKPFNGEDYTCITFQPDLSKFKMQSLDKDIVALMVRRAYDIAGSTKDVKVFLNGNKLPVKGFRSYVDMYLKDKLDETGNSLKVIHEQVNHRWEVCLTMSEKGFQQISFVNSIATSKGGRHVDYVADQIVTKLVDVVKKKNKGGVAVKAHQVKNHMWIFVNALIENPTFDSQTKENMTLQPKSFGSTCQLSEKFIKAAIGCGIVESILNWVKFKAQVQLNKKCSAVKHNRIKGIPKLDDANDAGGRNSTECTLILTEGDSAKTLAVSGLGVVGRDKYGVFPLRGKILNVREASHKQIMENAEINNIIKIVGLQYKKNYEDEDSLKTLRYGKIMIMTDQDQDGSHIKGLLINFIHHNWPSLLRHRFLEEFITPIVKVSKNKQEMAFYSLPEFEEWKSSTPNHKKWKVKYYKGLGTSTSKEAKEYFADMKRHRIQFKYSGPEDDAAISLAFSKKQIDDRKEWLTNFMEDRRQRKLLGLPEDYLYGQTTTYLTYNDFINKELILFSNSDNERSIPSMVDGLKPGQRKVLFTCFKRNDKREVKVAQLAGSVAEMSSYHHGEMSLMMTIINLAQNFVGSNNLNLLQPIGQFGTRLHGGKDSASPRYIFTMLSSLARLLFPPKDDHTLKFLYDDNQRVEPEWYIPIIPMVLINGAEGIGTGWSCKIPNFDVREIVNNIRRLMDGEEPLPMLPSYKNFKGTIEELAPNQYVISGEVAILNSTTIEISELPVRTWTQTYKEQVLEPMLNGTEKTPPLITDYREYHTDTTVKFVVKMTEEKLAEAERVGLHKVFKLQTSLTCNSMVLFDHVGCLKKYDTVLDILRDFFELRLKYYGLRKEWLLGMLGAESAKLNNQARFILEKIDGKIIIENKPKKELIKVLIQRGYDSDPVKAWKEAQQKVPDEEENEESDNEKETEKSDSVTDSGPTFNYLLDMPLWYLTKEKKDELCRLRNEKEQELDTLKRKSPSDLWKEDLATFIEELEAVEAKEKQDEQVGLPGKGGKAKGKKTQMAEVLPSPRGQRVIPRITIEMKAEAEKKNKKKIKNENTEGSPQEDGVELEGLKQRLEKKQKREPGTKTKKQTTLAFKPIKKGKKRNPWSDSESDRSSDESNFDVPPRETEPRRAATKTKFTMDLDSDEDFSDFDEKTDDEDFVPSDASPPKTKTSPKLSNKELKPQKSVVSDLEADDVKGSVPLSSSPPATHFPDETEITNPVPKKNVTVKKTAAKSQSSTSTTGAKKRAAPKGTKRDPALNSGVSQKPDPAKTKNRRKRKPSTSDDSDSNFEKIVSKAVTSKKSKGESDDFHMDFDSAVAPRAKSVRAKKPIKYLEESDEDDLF

Row | Substance | inhibition of topoisomerase II activity (decatenation of kinetoplast DNA) [1] | inhibition of topoisomerase II activity (decatenation of kinetoplast DNA) [2] | inhibition of topoisomerase II activity (relaxation of supercoiled plasmids) [3] | inhibition of topoisomerase II activity (relaxation of supercoiled plasmids) [4] | inhibitory activity for topoisomerase II [5]
1 | Thr-Gin-Leu-Asp-Ile-Leu-Arg-Asp-Leu-Phe-Glu-Leu-Arg -Leu-Lys-Tyr-Tyr-Gly-Leu-Arg-Lys-Glu-Phe-Leu-Leu-Gin-Met -Leu-Gly (TQLDILRDLFELRLKYYGLRKEFLLQMLG) [example 1] | totally inhibits | totally inhibits | totally inhibits | totally inhibits | 
2 | sequence 1013 to 1041 of human topoisomerase II alpha: topoisomerase II fragment, corresponding to sequence 1013 to 1041 of human topoisomerase II alpha, described by Frére Gallois et al. |  |  |  |  | inhibitory activity
